Reference: patent US20190038707A1

What was measured:
[1] = target: HCN1, hyperpolarization-activated cyclic nucleotide-gated channel pore-forming subunit 1, endogenous in CA1 pyramidal neurons of TRIP8b KO mice (mouse) (UniProt O88704); experiment: cell-based or functional assay
[2] = target: HCN channels (mediating Ih) in CA1 pyramidal neurons of TRIP8b KO mice; experiment: cell-based or functional assay

UniProt O88704, sequence (O88704 whole entry): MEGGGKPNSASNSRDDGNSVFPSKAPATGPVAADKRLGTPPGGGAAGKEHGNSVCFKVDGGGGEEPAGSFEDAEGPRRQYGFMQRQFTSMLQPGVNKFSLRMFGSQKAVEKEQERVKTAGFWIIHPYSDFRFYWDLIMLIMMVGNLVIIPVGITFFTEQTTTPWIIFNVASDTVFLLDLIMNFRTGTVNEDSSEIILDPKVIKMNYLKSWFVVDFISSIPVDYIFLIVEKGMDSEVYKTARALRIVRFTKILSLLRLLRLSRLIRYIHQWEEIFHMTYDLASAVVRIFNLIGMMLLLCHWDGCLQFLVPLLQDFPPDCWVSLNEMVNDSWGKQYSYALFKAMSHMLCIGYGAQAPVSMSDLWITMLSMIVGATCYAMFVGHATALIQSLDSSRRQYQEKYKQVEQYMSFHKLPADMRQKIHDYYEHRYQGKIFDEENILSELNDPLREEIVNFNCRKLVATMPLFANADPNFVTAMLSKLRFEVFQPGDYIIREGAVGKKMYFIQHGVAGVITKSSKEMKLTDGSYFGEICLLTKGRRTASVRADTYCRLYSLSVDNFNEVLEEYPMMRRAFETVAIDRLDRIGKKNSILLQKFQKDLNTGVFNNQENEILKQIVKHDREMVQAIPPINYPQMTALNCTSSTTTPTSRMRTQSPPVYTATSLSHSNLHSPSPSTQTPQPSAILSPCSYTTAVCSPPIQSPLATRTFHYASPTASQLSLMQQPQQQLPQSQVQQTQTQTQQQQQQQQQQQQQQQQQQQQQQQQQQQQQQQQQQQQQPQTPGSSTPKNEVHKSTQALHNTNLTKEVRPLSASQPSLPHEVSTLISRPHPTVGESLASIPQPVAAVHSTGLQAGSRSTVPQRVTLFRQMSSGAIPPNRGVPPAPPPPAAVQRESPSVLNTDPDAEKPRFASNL

Substance | HCN1 staining in the SLM layer of CA1, injected hemisphere scaled by contralateral hemisphere (immunohistochemistry) (fold of uninjected hemisphere) [1] | Ih amplitude, voltage clamp, TRIP8b KO mice [2] | sag ratio, somatic whole cell recordings, TRIP8b KO mice [2] | Ih amplitude, somatic voltage clamp recordings, TRIP8b KO mice [2] | sag ratio (ΔVmax/ΔVsteady-state), whole cell recordings from eGFP positive CA1 pyramidal neurons of TRIP8b KO mice [2] | HCN1 staining in the SLM of CA1, injected hemisphere relative to uninjected hemisphere (immunohistochemistry) (fold of uninjected hemisphere) [1]
TRIP8b(Δ58/N13A) double mutant, expressed from AAV-TRIP8b(Δ58/N13A) | 0.99 | – | – | – | – | –
TRIP8b(1a-4)(Δ58), expressed from AAV-TRIP8b(Δ58) | 0.98 | 0.27 pA/pF | 1.09 | – | – | –
TRIP8b(1a-4), tetratricopeptide repeat-containing Rab8b interacting protein, isoform comprised of exons 1a, 4 and 5-16, wild type, expressed from AAV-TRIP8b-IRES-eGFP | – | – | – | 0.68 pA/pF | 1.27 | 1.52
TRIP8b(1a-4)(TPR3-N13A), expressed from AAV-TRIP8b(N13A) | 0.78 | 0.282 pA/pF | 1.11 | – | – | –
